In patent publication US20260242735A1:

How the values were obtained:
Assay in all cases: flow cytometry, HEK293-T, alanine scan
human CD33 T302A (human) = human CD33 T302A (human) (UniProt P20138)
human CD33 I278A (human) = human CD33 I278A (human) (UniProt P20138)
human CD33 L338A (human) = human CD33 L338A (human) (UniProt P20138)
human CD33 T322A (human) = human CD33 T322A (human) (UniProt P20138)
human CD33 P330A (human) = human CD33 P330A (human) (UniProt P20138)
human CD33 V332A (human) = human CD33 V332A (human) (UniProt P20138)
human CD33 G318A (human) = human CD33 G318A (human) (UniProt P20138)
human CD33 K315A (human) = human CD33 K315A (human) (UniProt P20138)
Sequence of human CD33 K315A (human) (P20138 18-364 K315A limits assumed): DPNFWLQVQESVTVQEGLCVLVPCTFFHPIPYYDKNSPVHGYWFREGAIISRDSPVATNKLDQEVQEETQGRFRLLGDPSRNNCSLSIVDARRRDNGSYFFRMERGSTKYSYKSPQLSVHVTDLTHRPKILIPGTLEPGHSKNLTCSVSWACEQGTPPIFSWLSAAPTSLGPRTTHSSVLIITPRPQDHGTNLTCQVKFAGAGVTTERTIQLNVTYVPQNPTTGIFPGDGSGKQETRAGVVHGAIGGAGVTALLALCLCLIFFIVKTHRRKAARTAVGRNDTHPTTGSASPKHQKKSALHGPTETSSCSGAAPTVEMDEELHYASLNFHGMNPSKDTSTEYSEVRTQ

human CD33 A289S (human) = human CD33 A289S (human) (UniProt P20138)
human CD33 K283A (human) = human CD33 K283A (human) (UniProt P20138)
Sequence of human CD33 K283A (human) (P20138 18-364 K283A limits assumed): as the sequence (P20138 18-364 K315A limits assumed) above, with K266A, A298K counted along it

human CD33 S307A (human) = human CD33 S307A (human) (UniProt P20138)
Sequence of human CD33 S307A (human) (P20138 18-364 S307A limits assumed): as the sequence (P20138 18-364 K315A limits assumed) above, with S290A, A298K counted along it

human CD33 K288A (human) = human CD33 K288A (human) (UniProt P20138)
human CD33 F279A (human) = human CD33 F279A (human) (UniProt P20138)
human CD33 E321A (human) = human CD33 E321A (human) (UniProt P20138)
human CD33 G327A (human) = human CD33 G327A (human) (UniProt P20138)
human CD33 R287A (human) = human CD33 R287A (human) (UniProt P20138)
human CD33 R286A (human) = human CD33 R286A (human) (UniProt P20138)
Sequence of human CD33 R286A (human) (P20138 18-364 R286A limits assumed): as the sequence (P20138 18-364 K315A limits assumed) above, with R269A, A298K counted along it

human CD33 D335A (human) = human CD33 D335A (human) (UniProt P20138)
human CD33 H310A (human) = human CD33 H310A (human) (UniProt P20138)
Sequence of human CD33 H310A (human) (P20138 18-364 H310A limits assumed): as the sequence (P20138 18-364 K315A limits assumed) above, with H293A, A298K counted along it

human CD33 A290S (human) = human CD33 A290S (human) (UniProt P20138)
Sequence of human CD33 A290S (human) (P20138 18-364 A290S limits assumed): as the sequence (P20138 18-364 K315A limits assumed) above, with A273S, A298K counted along it

human CD33 G295A (human) = human CD33 G295A (human) (UniProt P20138)
human CD33 S314A (human) = human CD33 S314A (human) (UniProt P20138)
human CD33 Y340A (human) = human CD33 Y340A (human) (UniProt P20138)
Sequence of human CD33 Y340A (human) (P20138 18-364 Y340A limits assumed): as the sequence (P20138 18-364 K315A limits assumed) above, with A298K, Y323A counted along it

human CD33 S324A (human) = human CD33 S324A (human) (UniProt P20138)
human CD33 K313A (human) = human CD33 K313A (human) (UniProt P20138)
Sequence of human CD33 K313A (human) (P20138 18-364 K313A limits assumed): as the sequence (P20138 18-364 K315A limits assumed) above, with K296A, A298K counted along it

human CD33 A293S (human) = human CD33 A293S (human) (UniProt P20138)
human CD33 L271A (human) = human CD33 L271A (human) (UniProt P20138)
human CD33 H317A (human) = human CD33 H317A (human) (UniProt P20138)
human CD33 E333A (human) = human CD33 E333A (human) (UniProt P20138)
human CD33 E337A (human) = human CD33 E337A (human) (UniProt P20138)
human CD33 L277A (human) = human CD33 L277A (human) (UniProt P20138)
Sequence of human CD33 L277A (human) (P20138 18-364 L277A limits assumed): as the sequence (P20138 18-364 K315A limits assumed) above, with L260A, A298K counted along it

human CD33 K312A (human) = human CD33 K312A (human) (UniProt P20138)
human CD33 T331A (human) = human CD33 T331A (human) (UniProt P20138)
human CD33 V282A (human) = human CD33 V282A (human) (UniProt P20138)
human CD33 F345A (human) = human CD33 F345A (human) (UniProt P20138)
human CD33 P308A (human) = human CD33 P308A (human) (UniProt P20138)
human CD33 P319A (human) = human CD33 P319A (human) (UniProt P20138)
human CD33 H285A (human) = human CD33 H285A (human) (UniProt P20138)
Sequence of human CD33 H285A (human) (P20138 18-364 H285A limits assumed): as the sequence (P20138 18-364 K315A limits assumed) above, with H268A, A298K counted along it

human CD33 H300A (human) = human CD33 H300A (human) (UniProt P20138)
human CD33 T320A (human) = human CD33 T320A (human) (UniProt P20138)
human CD33 A329S (human) = human CD33 A329S (human) (UniProt P20138)
Sequence of human CD33 A329S (human) (P20138 18-364 A329S limits assumed): as the sequence (P20138 18-364 K315A limits assumed) above, with A298K, A312S counted along it

human CD33 T299A (human) = human CD33 T299A (human) (UniProt P20138)
human CD33 F280A (human) = human CD33 F280A (human) (UniProt P20138)
human CD33 N297A (human) = human CD33 N297A (human) (UniProt P20138)
human CD33 L273A (human) = human CD33 L273A (human) (UniProt P20138)
human CD33 L275A (human) = human CD33 L275A (human) (UniProt P20138)
Sequence of human CD33 L275A (human) (P20138 18-364 L275A limits assumed): as the sequence (P20138 18-364 K315A limits assumed) above, with L258A, A298K counted along it

Sequence of human CD33 P330A (human) (P20138 18-364 P330A limits assumed): as the sequence (P20138 18-364 K315A limits assumed) above, with A298K, P313A counted along it
Sequence of human CD33 T302A (human) (P20138 18-364 T302A limits assumed): as the sequence (P20138 18-364 K315A limits assumed) above, with T285A, A298K counted along it

Substance: Refmab #7 (WM53) (antibody)
- Mean % WT Binding (human CD33 T302A (human)): 113 % WT binding
- Mean % WT Binding (human CD33 I278A (human)): 93.2 % WT binding
- Mean % WT Binding (human CD33 L338A (human)): 124 % WT binding
- Mean % WT Binding (human CD33 T322A (human)): 102 % WT binding
- Mean % WT Binding (human CD33 P330A (human)): 102 % WT binding
- Mean % WT Binding (human CD33 V332A (human)): 112 % WT binding
- Mean % WT Binding (human CD33 G318A (human)): 128 % WT binding
- Mean % WT Binding (human CD33 K315A (human)): 112 % WT binding
- Mean % WT Binding (human CD33 A289S (human)): 107 % WT binding
- Mean % WT Binding (human CD33 K283A (human)): 117 % WT binding
- Mean % WT Binding (human CD33 S307A (human)): 91.7 % WT binding
- Mean % WT Binding (human CD33 K288A (human)): 128 % WT binding
- Mean % WT Binding (human CD33 F279A (human)): 124 % WT binding
- Mean % WT Binding (human CD33 E321A (human)): 109 % WT binding
- Mean % WT Binding (human CD33 G327A (human)): 110 % WT binding
- Mean % WT Binding (human CD33 R287A (human)): 91.1 % WT binding
- Mean % WT Binding (human CD33 R286A (human)): 134 % WT binding
- Mean % WT Binding (human CD33 D335A (human)): 106 % WT binding
- Mean % WT Binding (human CD33 H310A (human)): 90.4 % WT binding
- Mean % WT Binding (human CD33 A290S (human)): 98 % WT binding
- Mean % WT Binding (human CD33 G295A (human)): 115 % WT binding
- Mean % WT Binding (human CD33 S314A (human)): 107 % WT binding
- Mean % WT Binding (human CD33 Y340A (human)): 112 % WT binding
- Mean % WT Binding (human CD33 S324A (human)): 99.2 % WT binding
- Mean % WT Binding (human CD33 K313A (human)): 108 % WT binding
- Mean % WT Binding (human CD33 A293S (human)): 120 % WT binding
- Mean % WT Binding (human CD33 L271A (human)): 113 % WT binding
- Mean % WT Binding (human CD33 H317A (human)): 112 % WT binding
- Mean % WT Binding (human CD33 E333A (human)): 91 % WT binding
- Mean % WT Binding (human CD33 E337A (human)): 102 % WT binding
- Mean % WT Binding (human CD33 L277A (human)): 92 % WT binding
- Mean % WT Binding (human CD33 K312A (human)): 101 % WT binding
- Mean % WT Binding (human CD33 T331A (human)): 108 % WT binding
- Mean % WT Binding (human CD33 V282A (human)): 106 % WT binding
- Mean % WT Binding (human CD33 F345A (human)): 140 % WT binding
- Mean % WT Binding (human CD33 P308A (human)): 111 % WT binding
- Mean % WT Binding (human CD33 P319A (human)): 114 % WT binding
- Mean % WT Binding (human CD33 H285A (human)): 109 % WT binding
- Mean % WT Binding (human CD33 H300A (human)): 106 % WT binding
- Mean % WT Binding (human CD33 T320A (human)): 117 % WT binding
- Mean % WT Binding (human CD33 A329S (human)): 120 % WT binding
- Mean % WT Binding (human CD33 T299A (human)): 109 % WT binding
- Mean % WT Binding (human CD33 F280A (human)): 104 % WT binding
- Mean % WT Binding (human CD33 N297A (human)): 81.2 % WT binding
- Mean % WT Binding (human CD33 L273A (human)): 92.5 % WT binding
- Mean % WT Binding (human CD33 L275A (human)): 106 % WT binding
